The IC50 is the concentration that inhibits the measured activity by half. Read a high IC50 as lower potency. For orientation: Km means the substrate concentration at which the rate is half of its maximum. In general, kcat refers to the number of substrate molecules converted per active site and unit of time at saturation. As a reminder, the kcat/Km is the turnover number divided by the Michaelis constant.

The target of one data set is T1, AMZ-1 (Achromobacter mucicolens, UniProt Z9OND0BR39).
T1 construct: ORF without signal peptide (cleavage 26/27) in pColdI, E. coli BL21(DE3); His-tag removed with enterokinase
Put plainly: nitrocefin hydrolysis, UV-VIS spectrophotometry. The format is biochemical.

The test system of data set [1] is CC(=O)OCC1=C(C(=O)O)N2C(=O)[C@@H](NC(=O)Cc3cccs3)[C@H]2SC1. Put plainly: UV-VIS hydrolysis, initial rates, Michaelis-Menten fit. The format is biochemical, Achromobacter mucicolens. Conditions: 10 mM phosphate pH 7.0, 37°C. An excerpt:
(§1) UV-VIS hydrolysis, initial rates, Michaelis-Menten fit on AMZ-1

The subject of data set [2] is CC1(C)S[C@@H]2[C@H](NC(=O)Cc3ccccc3)C(=O)N2[C@H]1C(=O)O. Described as above. The format is biochemical, Achromobacter mucicolens. The following applies: 10 mM phosphate pH 7.0, 37°C.
Description: as §1

For data set [3], the system named is CC1(C)S[C@@H]2[C@H](NC(=O)[C@H](N)c3ccc(O)cc3)C(=O)N2[C@H]1C(=O)O. The description is as above. The class given is biochemical, Achromobacter mucicolens. Conditions: 10 mM phosphate pH 7.0, 37°C.
Description: as §1

The test system of data set [4] is CO[C@@]1(NC(=O)Cc2cccs2)C(=O)N2C(C(=O)O)=C(COC(N)=O)CS[C@@H]21. The description is as above. The format is biochemical, Achromobacter mucicolens. Conditions: 10 mM phosphate pH 7.0, 37°C.
Description: as §1

With `C[C@]1(Cn2ccnn2)[C@H](C(=O)O)N2C(=O)C[C@H]2S1(=O)=O` [tazobactam], the IC50 against AMZ-1 is 1090 µM.
With AMZ-1 (Achromobacter mucicolens), the Km in data set [1] is 564.23 ± 56.35 µM; in data set [2], 108.84 ± 8.12 µM; in data set [3], 14.65 ± 1.274 µM; in data set [4] it was 18.16 ± 3.88 µM. Further, the kcat was found to be 5.88 ± 0.39 s⁻¹ in data set [1], 3.93 ± 0.13 s⁻¹ in data set [2], 0.0947 ± 0.005 s⁻¹ in data set [3] and 0.0805 ± 0.0137 s⁻¹ in data set [4]. Also, the kcat/Km in data set [1] came out at 10400 ± 40 M⁻¹ s⁻¹; in data set [2] it was 36300 ± 150 M⁻¹ s⁻¹; in data set [3] it was 6780 ± 1650 M⁻¹ s⁻¹; in data set [4], 4540 ± 660 M⁻¹ s⁻¹.
Compound `NC(=O)[C@@H]1CC[C@@H]2CN1C(=O)N2OS(=O)(=O)O` [avibactam] showed a 50% inhibitory concentration (IC50) at AMZ-1 of 0.00082 µM.
